Results: paper PMC9814621, “Nanoscopic investigation of C9orf72 poly-GA oligomers on nuclear membrane disruption by a photoinducible platform” (Communications Chemistry, 2021)
Ends that are not written are not given here.

Tests used:
[1] = biological target: the molecule itself; assay: fluorescence lifetime imaging microscopy (self-quenching); SH-SY5Y cells treated with 1 uM ADP-2 and photoinitiated; fixed 2, 12 and 24 h after UV
[2] = biological target: the molecule itself; assay: transmission electron microscopy; time course of the probe solution with or without irradiation (ADP-1 50 uM; 365 nm, 32 mW/cm^2, 1 min)

| Protein | binding result [1] | binding result [2] |
| --- | --- | --- |
| C(Alexa Fluor 488 C5 maleimide)GAGAGAGAGAGAGAGAGAGAGAGA (N-terminal cysteine (labelled) followed by 12 glycine-alanine repeats; poly-GA dipeptide repeat of the C9orf72 repeat expansion; also called AF-488-labeled GA DPRs; ADP-2-derived GA DPRs; source: also released inside SH-SY5Y cells treated with ADP-2) | binds | – |
| CGAGAGAGAGAGAGAGAGAGAGAGA (N-terminal cysteine followed by 12 glycine-alanine repeats; poly-GA dipeptide repeat translated from the G4C2 repeat expansion of C9orf72 (not part of the C9orf72 protein itself); also called (GA)12; ADP-1-derived GA DPRs; source: synthetic peptide (Fmoc chemistry, HPLC purified), released from ADP-1 by 365-nm light; also released inside SH-SY5Y cells treated with ADP-1) [GA DPRs fragment photoreleased from ADP-1 [cysteine-(glycine-alanine)12]] | – | binds |
